Assay results: patent WO2025083273A1 (dated 2025)

T1: DR3-8i (human)
T1 construct: also called purified monomeric DR3-8i antigen protein
T1 chain: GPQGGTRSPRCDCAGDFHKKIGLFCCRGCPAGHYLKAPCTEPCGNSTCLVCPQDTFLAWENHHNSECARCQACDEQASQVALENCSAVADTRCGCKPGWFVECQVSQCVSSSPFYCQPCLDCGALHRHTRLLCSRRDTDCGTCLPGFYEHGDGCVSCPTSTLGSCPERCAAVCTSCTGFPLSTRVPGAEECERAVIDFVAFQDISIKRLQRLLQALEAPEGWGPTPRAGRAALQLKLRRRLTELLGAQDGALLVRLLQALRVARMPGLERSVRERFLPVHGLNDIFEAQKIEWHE

T2: human DR3 (TNFRSF25) expressed on cells (human, UniProt Q93038 25-417)
T2 sequence: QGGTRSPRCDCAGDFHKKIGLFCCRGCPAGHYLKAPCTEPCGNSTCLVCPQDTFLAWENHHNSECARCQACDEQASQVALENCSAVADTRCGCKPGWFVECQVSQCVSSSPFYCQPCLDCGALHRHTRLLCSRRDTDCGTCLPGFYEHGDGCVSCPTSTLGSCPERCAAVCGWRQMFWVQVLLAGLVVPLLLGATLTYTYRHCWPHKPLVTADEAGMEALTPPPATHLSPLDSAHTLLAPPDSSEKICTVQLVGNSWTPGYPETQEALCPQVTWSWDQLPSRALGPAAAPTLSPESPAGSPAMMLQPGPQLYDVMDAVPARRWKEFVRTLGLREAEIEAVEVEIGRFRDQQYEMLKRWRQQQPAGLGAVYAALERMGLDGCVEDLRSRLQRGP

B1: VHg1/VLg4 (antibody, human IgG1, V domains shown)
VH: QVQLVQSGGGLVQPGGSLRLSCAASGFTFSSYAMSWVRQAPGKGLEWVSTISDGDSYSYFPDSVKDRFTISRDNSKNTLYLQMNSLRAEDTSVYYCARDRIYGSVQYYAMDYWGQGTLVTVSS
VL: DVVMTQSPDSLAVSLGERATISCRASESVEFSGTSLMQWYQQKPRQPLKLLIYAASNVESGVPDRFSGSGSGTDFTLTISSLQAEDVAVYYCQQSRKLPYTFGQGTRLEIK
notes: human IgG1
B2: VHg1/VLg12 (antibody, human IgG1, V domains shown)
VH: QVQLVQSGGGLVQPGGSLRLSCAASGFTFSSYAMSWVRQAPGKGLEWVSTISDGDSYSYFPDSVKDRFTISRDNSKNTLYLQMNSLRAEDTSVYYCARDRIYGSVQYYAMDYWGQGTLVTVSS
VL: EIVLTQSPATLSLSPGERATLSCRASESVEFSGTSLMQWYQQKPGQAPRLLIYAASNVESGIPARFSGSGSGTDFTLTISSLEPEDFAVYYCQQSRKLPYTFGQGTKLEIK
notes: human IgG1
B3: VHg1/VLg2 (antibody, human IgG1, V domains shown)
VH: QVQLVQSGGGLVQPGGSLRLSCAASGFTFSSYAMSWVRQAPGKGLEWVSTISDGDSYSYFPDSVKDRFTISRDNSKNTLYLQMNSLRAEDTSVYYCARDRIYGSVQYYAMDYWGQGTLVTVSS
VL: DIQLTQSPSSLSASVGDRVTITCRASESVEFSGTSLMQWYQQKAGLAPKLLIYAASNVESGVPSRFSGSGSGTDFTLTISSLQPEDFGTYYCQQSRKLPYTFGQGTRLEIK
notes: human IgG1
B4: VHg2/VLg2 (antibody, human IgG1, V domains shown)
VH: QMQLVQSGGGLVKPGGSLRLSCAASGFTFSSYAMSWIRQAPGKGLEWVSTISDGDSYSYFPDSVKDRFTISRDNAKNSLYLQMNSLRAEDTAVYYCTRDRIYGSVQYYAMDYWGRGTLVTVSS
VL: DIQLTQSPSSLSASVGDRVTITCRASESVEFSGTSLMQWYQQKAGLAPKLLIYAASNVESGVPSRFSGSGSGTDFTLTISSLQPEDFGTYYCQQSRKLPYTFGQGTRLEIK
notes: human IgG1
B5: VHg10/VLg6 (antibody, human IgG1, V domains shown)
VH: EVQLVESGGGLVQPGGSLRLSCAASGFTFSSYAMSWVRQAPGKGLEWVSTISDGDSYSYFPDSVKDRFTISRDNSKNTLYLQMNSLRAEDTAVYYCARDRIYGSVQYYAMDYWGQGTLVTVSS
VL: DVVMTQSPPSLPVTPGEPASISCRASESVEFSGTSLMQWYLQKPGQSPQVLIYAASNVESGVPDRFSGSGSGTDFTLKISRVEAEDVGVYYCQQSRKLPYTFGQGTRLEIK
notes: human IgG1
B6: VHg2/VLs10 (antibody, human IgG1, V domains shown)
VH: QMQLVQSGGGLVKPGGSLRLSCAASGFTFSSYAMSWIRQAPGKGLEWVSTISDGDSYSYFPDSVKDRFTISRDNAKNSLYLQMNSLRAEDTAVYYCTRDRIYGSVQYYAMDYWGRGTLVTVSS
VL: ETTLTQSPGTLSLSPGERATLSCRASQSVSSSSLAWYQQKPGQAPRLLIYGASSRATGIPDRFSGSGSGTDFTLTISRLEPEDFAVYYCHQYGGSWTFGKGTKVEIK
notes: human IgG1; also called VHg2_VLg10
B7: VHg10/VLg12 (antibody, human IgG1, V domains shown)
VH: EVQLVESGGGLVQPGGSLRLSCAASGFTFSSYAMSWVRQAPGKGLEWVSTISDGDSYSYFPDSVKDRFTISRDNSKNTLYLQMNSLRAEDTAVYYCARDRIYGSVQYYAMDYWGQGTLVTVSS
VL: EIVLTQSPATLSLSPGERATLSCRASESVEFSGTSLMQWYQQKPGQAPRLLIYAASNVESGIPARFSGSGSGTDFTLTISSLEPEDFAVYYCQQSRKLPYTFGQGTKLEIK
notes: human IgG1
B8: VHg3/VLg12 (antibody, human IgG1, V domains shown)
VH: EVQLVQSGGGLVKPGGSLRLSCAASGFKFSSYAMSWVRQAPGKGLEWLSTISDGDSYSYFPDSVKDRFIISRDNAKNSLYLQMNSLRVEDTGVYYCARDRIYGSVQYYAMDYWGQGTLVTVSS
VL: EIVLTQSPATLSLSPGERATLSCRASESVEFSGTSLMQWYQQKPGQAPRLLIYAASNVESGIPARFSGSGSGTDFTLTISSLEPEDFAVYYCQQSRKLPYTFGQGTKLEIK
notes: human IgG1
B9: VHg6/VLg2 (antibody, human IgG1, V domains shown)
VH: QVQLQQSGGGLVQPGGSLRLSCAASGFTFSSYAMSWVRQAPGKGLEWVATISDGDSYSYFPDSVKDRFTISRDNARNSLYLQMNSLRAEDTAVYYCARDRIYGSVQYYAMDYWGRGTLVTVSS
VL: DIQLTQSPSSLSASVGDRVTITCRASESVEFSGTSLMQWYQQKAGLAPKLLIYAASNVESGVPSRFSGSGSGTDFTLTISSLQPEDFGTYYCQQSRKLPYTFGQGTRLEIK
notes: human IgG1
B10: VHg10/VLg11 (antibody, human IgG1, V domains shown)
VH: EVQLVESGGGLVQPGGSLRLSCAASGFTFSSYAMSWVRQAPGKGLEWVSTISDGDSYSYFPDSVKDRFTISRDNSKNTLYLQMNSLRAEDTAVYYCARDRIYGSVQYYAMDYWGQGTLVTVSS
VL: DIVMTQSPDSLAVSLGERATINCRASESVEFSGTSLMQWYQQKPGQPPKLLIYAASNVESGVPDRFSGSGSGTDFTLTISSLQAEDVAVYYCQQSRKLPYTFGQGTKLEIK
notes: human IgG1
B11: VHg10/VLg4 (antibody, human IgG1, V domains shown)
VH: EVQLVESGGGLVQPGGSLRLSCAASGFTFSSYAMSWVRQAPGKGLEWVSTISDGDSYSYFPDSVKDRFTISRDNSKNTLYLQMNSLRAEDTAVYYCARDRIYGSVQYYAMDYWGQGTLVTVSS
VL: DVVMTQSPDSLAVSLGERATISCRASESVEFSGTSLMQWYQQKPRQPLKLLIYAASNVESGVPDRFSGSGSGTDFTLTISSLQAEDVAVYYCQQSRKLPYTFGQGTRLEIK
notes: human IgG1
B12: VHg6/VLg12 (antibody, human IgG1, V domains shown)
VH: QVQLQQSGGGLVQPGGSLRLSCAASGFTFSSYAMSWVRQAPGKGLEWVATISDGDSYSYFPDSVKDRFTISRDNARNSLYLQMNSLRAEDTAVYYCARDRIYGSVQYYAMDYWGRGTLVTVSS
VL: EIVLTQSPATLSLSPGERATLSCRASESVEFSGTSLMQWYQQKPGQAPRLLIYAASNVESGIPARFSGSGSGTDFTLTISSLEPEDFAVYYCQQSRKLPYTFGQGTKLEIK
notes: human IgG1
B13: VHg10/VLg5 (antibody, human IgG1, V domains shown)
VH: EVQLVESGGGLVQPGGSLRLSCAASGFTFSSYAMSWVRQAPGKGLEWVSTISDGDSYSYFPDSVKDRFTISRDNSKNTLYLQMNSLRAEDTAVYYCARDRIYGSVQYYAMDYWGQGTLVTVSS
VL: EIVLTQSPGTLSLSPGERGTLSCRASESVEFSGTSLMQWYQQKPGQAPRLLIYAASNVESGIPDRFSGSGSETDFTLTISRLEPEDLAVYYCQQSRKLPYTFGQGTRLEIK
notes: human IgG1
B14: VHg2/VLg12 (antibody, human IgG1, V domains shown)
VH: QMQLVQSGGGLVKPGGSLRLSCAASGFTFSSYAMSWIRQAPGKGLEWVSTISDGDSYSYFPDSVKDRFTISRDNAKNSLYLQMNSLRAEDTAVYYCTRDRIYGSVQYYAMDYWGRGTLVTVSS
VL: EIVLTQSPATLSLSPGERATLSCRASESVEFSGTSLMQWYQQKPGQAPRLLIYAASNVESGIPARFSGSGSGTDFTLTISSLEPEDFAVYYCQQSRKLPYTFGQGTKLEIK
notes: human IgG1
B15: VHg3/VLg13 (antibody, human IgG1, V domains shown)
VH: EVQLVQSGGGLVKPGGSLRLSCAASGFKFSSYAMSWVRQAPGKGLEWLSTISDGDSYSYFPDSVKDRFIISRDNAKNSLYLQMNSLRVEDTGVYYCARDRIYGSVQYYAMDYWGQGTLVTVSS
VL: DIQMTQSPSSLSASVGDRVTITCRASESVEFSGTSLMQWYQQKPGKAPKLLIYAASNVESGVPSRFSGSGSGTDFTFTISSLQPEDIATYYCQQSRKLPYTFGQGTKLEIK
notes: human IgG1

Columns and labels:
DR3-8i [1] = target: T1, DR3-8i; test: BLI, IgG captured on protein A, DR3-8i in solution; single experiment, column not clear
[2] = target: T2, human DR3 (TNFRSF25) expressed on cells; test: cell-based or functional assay
DR3-8i [3] = target: T1, DR3-8i; test: BLI, IgG captured on protein A, DR3-8i in solution; Experiment 2
DR3-8i [4] = target: T1, DR3-8i; test: BLI, IgG captured on protein A, DR3-8i in solution; Experiment 1
DR3-8i [5] = target: T1, DR3-8i; test: BLI, IgG captured on protein A, DR3-8i in solution; Average

Row | Binder | Kd (DR3-8i [1]) | Signal (FLU) [2] | Kd (DR3-8i [3]) | Kd (DR3-8i [4]) | EC50 (pM), DR3 Jurkat reporter [2] | Kd (DR3-8i [5])
1 | B1 | 0.196 nM | 2.09e+06 FLU |  |  |  | 
2 | B2 |  | 2.76e+06 FLU | 0.0445 nM | 0.001 nM | 322 pM | 0.0228 nM
3 | B3 |  | 2.44e+06 FLU | 0.00202 nM | 0.316 nM | 336 pM | 0.159 nM
4 | B4 |  | 2.5e+06 FLU | 0.21 nM | 0.001 nM | 103 pM | 0.106 nM
5 | B5 |  | 2.75e+06 FLU | 0.234 nM | 0.418 nM |  | 0.326 nM
6 | B6 |  | 2.34e+06 FLU | 0.42 nM | 0.41 nM | 644 pM | 0.415 nM
7 | B7 |  | 3.56e+06 FLU | 0.188 nM | 0.175 nM | 132 pM | 0.181 nM
8 | B8 |  | 2.6e+06 FLU | 0.409 nM | 0.39 nM | 1480 pM | 0.4 nM
9 | B9 |  | 2.44e+06 FLU | 0.159 nM | 0.227 nM | 118 pM | 0.193 nM
10 | B10 |  | 3.24e+06 FLU | 0.244 nM | 0.166 nM | 245 pM | 0.205 nM
11 | B11 |  | 3.17e+06 FLU | 0.167 nM | 0.242 nM | 570 pM | 0.204 nM
12 | B12 |  | 2.47e+06 FLU | 0.0876 nM | 0.227 nM | 134 pM | 0.157 nM
13 | B13 |  | 3.08e+06 FLU | 0.259 nM | 0.233 nM | 634 pM | 0.246 nM
14 | B14 |  | 2.68e+06 FLU | 0.177 nM | 0.0644 nM | 117 pM | 0.121 nM
15 | B15 |  | 2.66e+06 FLU | 0.389 nM | 0.464 nM | 1770 pM | 0.427 nM
